{"source": "paper PMC10715038", "about": "(Microbiology Spectrum, 2023)", "molecular_target": "T1, SARS-CoV-2 WHU01 Spike RBD, monomeric (SARS-CoV-2, UniProt P0DTC2)", "T1 construct": "not shown: Fc (human IgG1), C-terminal, cleaved", "assay": "SPR", "conditions": "both partners purified", "data": [{"binder": "Cattle ACE2-huFc (soluble cattle ACE2 ectodomain, human IgG1 Fc fusion) (Fc fusion) QSTTEEQAKTFLEKFNHEAEDLSYQSSLASWNYNTNITDENVQKMNEARAKWSAFYEEQSRMAKTYSLEEIQNLTLKRQLKALQHSGTSALSAEKSKRLNTILNKMSTIYSTGKVLDPNTQECLALEPGLDDIMENSRDYNRRLWAWEGWRAEVGKQLRPLYEEYVVLENEMARANNYEDYGDYWRGDYEVTGAGDYDYSRDQLMKDVERTFAEIKPLYEQLHAYVRAKLMHTYPSYISPTGCLPAHLLGDMWGRFWTNLYSLTVPFEHKPSIDVTEKMENQSWDAERIFKEAEKFFVSISLPYMTQGFWDNSMLTEPGDGRKVVCHPTAWDLGKGDFRIKMCTKVTMDDFLTAHHEMGHIQYDMAYAAQPYLLRNGANEGFHEAVGEIMSLSAATPHYLKALGLLAPDFHEDNETEINFLLKQALTIVGTLPFTYMLEKWRWMVFKGEIPKQQWMEKWWEMKREIVGVVEPLPHDETYCDPACLFHVAEDYSFIRYYTRTIYQFQFHEALCKTAKHEGALFKCDISNSTEAGQRLLQMLRLGKSEPWTLALENIVGIKTMDVKPLLNYFEPLFTWLKEQNRNSFVGWSTEWTPYSDQSIKVRISLKSALGENAYEWNDNEMYLFQSSVAYAMRKYFSEARNETVLFGEDNVWVSDKKPRISFKFFVTSPNNVSDIIPRTEVENAIRLSRDRINDVFQLDDNSLEFLGIQPTLGPPYEPPVTI", "values": [{"measurement": "Kd", "result": 700, "unit": "nM"}, {"measurement": "koff", "result": 0.066, "unit": "s⁻¹"}, {"measurement": "kon", "result": 94000, "unit": "M⁻¹ s⁻¹"}]}]}
